Laboratory results: the supplement of paper PMC9112550, “Optimization of the antimicrobial peptide Bac7 by deep mutational scanning” (BMC Biology, 2022)

system: Escherichia coli TOP10; assay: shrunken log2 fold change of peptide-encoding DNA abundance (4.5 h post-induction vs induction); higher = less antimicrobial activity (less host growth inhibition); details: time post-induction: 4.5 h; library: site-saturation at positions 5, 18, 19, 20
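Further: peptides expressed intracellularly from a pBAD plasmid library in pooled LB shake-flask culture, induced with 0.3% L-arabinose, DNA abundance read by NGS, three biological replicates, DESeq2 with apeglm shrinkage.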

| Sequence | shrunken log2 fold change |
| --- | --- |
| RRIRHRPPRLPRPRPRPLYPPRP | -0.804 |
| RRIRHRPPRLPRPRPRPMCNPRP | -0.186 |
| RRIRHRPPRLPRPRPRPMCSPRP | -0.0225 |
| RRIRHRPPRLPRPRPRPMDIPRP | -0.00136 |
| RRIRHRPPRLPRPRPRPMDQPRP | -0.0412 |
| RRIRHRPPRLPRPRPRPMEAPRP | -0.0935 |
| RRIRHRPPRLPRPRPRPMGEPRP | -0.0135 |
| RRIRHRPPRLPRPRPRPMGKPRP | -0.189 |
| RRIRHRPPRLPRPRPRPMGTPRP | -0.0597 |
| RRIRHRPPRLPRPRPRPMGYPRP | -0.134 |
| RRIRHRPPRLPRPRPRPMKCPRP | -0.0796 |
| RRIRHRPPRLPRPRPRPMKGPRP | 0.081 |
| RRIRHRPPRLPRPRPRPMMNPRP | -0.0135 |
| RRIRHRPPRLPRPRPRPMRLPRP | 0.0431 |
| RRIRHRPPRLPRPRPRPMRNPRP | 0.435 |
| RRIRHRPPRLPRPRPRPMVDPRP | -0.222 |
| RRIRHRPPRLPRPRPRPMVGPRP | -0.0276 |
| RRIRHRPPRLPRPRPRPMVSPRP | -0.00841 |
| RRIRHRPPRLPRPRPRPMYHPRP | -0.287 |
| RRIRHRPPRLPRPRPRPMYRPRP | -0.0948 |
| RRIRHRPPRLPRPRPRPMYVPRP | 0.0136 |
| RRIRHRPPRLPRPRPRPMYWPRP | -0.222 |
| RRIRHRPPRLPRPRPRPNDLPRP | 0.0529 |
| RRIRHRPPRLPRPRPRPNEWPRP | -0.0925 |
| RRIRHRPPRLPRPRPRPNFYPRP | -0.515 |

| Sequence | shrunken log2 fold change |
| --- | --- |
| RRIRHRPPRLPRPRPRPNINPRP | -1.31 |
| RRIRHRPPRLPRPRPRPNKNPRP | -0.717 |
| RRIRHRPPRLPRPRPRPNLRPRP | 0.00562 |
| RRIRHRPPRLPRPRPRPNNNPRP | -1.09 |
| RRIRHRPPRLPRPRPRPNPGPRP | 0.111 |
| RRIRHRPPRLPRPRPRPNPWPRP | -0.248 |
| RRIRHRPPRLPRPRPRPNQRPRP | 0.333 |
| RRIRHRPPRLPRPRPRPNQSPRP | -0.3 |
| RRIRHRPPRLPRPRPRPNRAPRP | -0.0865 |
| RRIRHRPPRLPRPRPRPNRDPRP | -0.0852 |
| RRIRHRPPRLPRPRPRPNSDPRP | -0.0908 |
| RRIRHRPPRLPRPRPRPNSFPRP | 0.00867 |
| RRIRHRPPRLPRPRPRPNTNPRP | -0.74 |
| RRIRHRPPRLPRPRPRPNTSPRP | -0.534 |
| RRIRHRPPRLPRPRPRPNYFPRP | -0.125 |
| RRIRHRPPRLPRPRPRPNYGPRP | -0.0744 |
| RRIRHRPPRLPRPRPRPNYLPRP | -0.114 |
| RRIRHRPPRLPRPRPRPPATPRP | 0.29 |
| RRIRHRPPRLPRPRPRPPCAPRP | 0.228 |
| RRIRHRPPRLPRPRPRPPEMPRP | 0.484 |
| RRIRHRPPRLPRPRPRPPFMPRP | 0.0707 |
| RRIRHRPPRLPRPRPRPPGAPRP | 0.935 |
| RRIRHRPPRLPRPRPRPPHIPRP | -0.287 |
| RRIRHRPPRLPRPRPRPPIHPRP | -0.639 |
| RRIRHRPPRLPRPRPRPPIKPRP | -0.16 |

| Sequence | shrunken log2 fold change |
| --- | --- |
| RRIRHRPPRLPRPRPRPPKYPRP | -0.349 |
| RRIRHRPPRLPRPRPRPPMEPRP | -0.0615 |
| RRIRHRPPRLPRPRPRPPMPPRP | 0.108 |
| RRIRHRPPRLPRPRPRPPNKPRP | -0.171 |
| RRIRHRPPRLPRPRPRPPPLPRP | 0.651 |
| RRIRHRPPRLPRPRPRPPQGPRP | 0.133 |
| RRIRHRPPRLPRPRPRPPQMPRP | 0.149 |
| RRIRHRPPRLPRPRPRPPRFPRP | 0.578 |
| RRIRHRPPRLPRPRPRPPSMPRP | -0.343 |
| RRIRHRPPRLPRPRPRPPTMPRP | -0.354 |
| RRIRHRPPRLPRPRPRPPVAPRP | 0.0782 |
| RRIRHRPPRLPRPRPRPPWRPRP | 0.538 |
| RRIRHRPPRLPRPRPRPPWWPRP | 0.18 |
| RRIRHRPPRLPRPRPRPPYSPRP | -0.418 |
| RRIRHRPPRLPRPRPRPQCFPRP | -0.0477 |
| RRIRHRPPRLPRPRPRPQCKPRP | -0.161 |
| RRIRHRPPRLPRPRPRPQECPRP | -0.0126 |
| RRIRHRPPRLPRPRPRPQFAPRP | 0.0852 |
| RRIRHRPPRLPRPRPRPQFGPRP | -0.184 |
| RRIRHRPPRLPRPRPRPQGNPRP | -0.168 |
| RRIRHRPPRLPRPRPRPQGSPRP | -0.109 |
| RRIRHRPPRLPRPRPRPQHDPRP | -0.281 |
| RRIRHRPPRLPRPRPRPQILPRP | -0.0081 |
| RRIRHRPPRLPRPRPRPQITPRP | -0.884 |
| RRIRHRPPRLPRPRPRPQMKPRP | -0.553 |
